Measured values from the nanobody polyreactivity screen of Harvey et al. (2022).

assay: yeast display, Sf9 membrane polyspecificity reagent, FACS + sequencing; frameworks hold sequencing errors
In short: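 After 36–48 hours of galactose induction, yeast (Saccharomyces cerevisiae BJ5465) displaying a synthetic nanobody library were stained at 4 °C for 1 hour with 10% biotinylated, detergent-solubilized Sf9 membrane reagent. Streptavidin microbeads enriched the stained cells before FACS sorting into low and high (top ~1%) gates on anti-HA and streptavidin fluorescence. Each clone's polyreactivity label reflects its gate of origin.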

Sequence | polyreactivity (PSR sort gate)
QVQLVESGGGLVQAGGSLRLSCAASGQTFDWYAMGWYRQAPGKERELVAAITSVGSTYYADSVKGRFTISRDNAKNSVYLQMNSLKPEDTAVYYCAVEGVIWSFWPYEYWGQGTQVTVSS | high polyreactivity
QVQLVESGGGLVQAGGSLRLSCAASGNTFYGYVMGWYRQAPGKERELVAAISWSGGRTYYADSVKGRFTISRDNAKNTVYLQMNSLKPEDTAVYYCAAVLLYYIYDYWGQGTQVTVSS | low polyreactivity
QVQLVESGGGLVQAGGSLRLSCAASGSIFYSNAMGWYRQAPGKERELVADISWSDGSTYYADSVKGRFTISRDNAKNNVYLQMNSLKPEDTEVYYCARKAGYSYFRRYDYWGQGTQVTVSS | low polyreactivity
HVQLVESGGGLVQAGGSLPLSCAASGLTFYYNAMGWYRQAPGNERELVAAISFSGGRTYYADSVKGRFTISRDNAKNTVYLQMNSLKPEDTAVYYCNTVGKQHLDYDYWGQGTQVTVSS | high polyreactivity
QVQLVESGGGLVQAGGSLRLICAASGLTFSIYAMGWYRQAPGKERELVAAITGRGGRTYYADSVKGRFTISRDNAKNTVYLQMNSLKPEDTAVYYCAARYRGTDFDYWGQGTQVTVSS | high polyreactivity
QVQLVESGGGLVQAGGSLRLSCAASGRTFTTNAMGSYRQAPGKERELVAAITIGDDTYYADSVKGRFTISRDNAKNTVYLQMNSLKPEDTAVYYCAADYKRVPFVTQYVSKDGYWGQGTQVTVSS | low polyreactivity
QVQLVESGGGLVQAGGSLRLSCDASGRIFGYTMGWYIQAPGKERELVAAISKSGGSTYYADSVKGRFTISRDNAKNTVYLQMNSLKPEDTAVYYCNKPQRILYDYWGQGTQVTVSS | high polyreactivity
QVQLVESGGGLVQAGGSLRLSCAASGRIFGFYAMGWYRQAPGKERELVARITLSGGRTYYADSVKGRFTISRDNAKNTVYLQMNSLKPEDTEVYYCAADSIGRLWGYGYWGQGTQVTVSS | high polyreactivity
QVQLVESGGGLVQAGGSLRLSCAASGRIFVVNAMGWYRQAPGKESELVAAITRRGGSTYADSVKGRFTISRDNAKNTLYIQMTSLKPEDTAVYYCNAESDFGIFRYKYDYWGQCTQVTVSS | high polyreactivity
QDQLVESGGGLVQAGGSLRLSCAASGSTFPDYAMGRYRQAPGKERELFAAISSGGSTNYADSVKGRFTISRDNAKNTVYLQMNSLKPEDTAVYYCAADVGAIYDKAVNGYWGQGTQVTVSS | low polyreactivity
QVQLVESGGGLVQAGGSLRLSCAASGRIFWSYAMGWYRQAPGKEREFVAVITWSGGSTYYADSVKGRFTISRDNAKNTVYLQMNSLKPEDTAVYYCADGQWWYQVRFDYWGQGTQVTVSS | low polyreactivity
QVQLVESGGGLVQAGGSLRLSCAASGRTFAVYSMGWYRQATGKERELVAVISSGGGTDYADSVKGRFRISRDNAKNTVYLQMNSLNPEDTAVYYCAADSVTFLATQPGDYWGQGTQVTVSS | low polyreactivity
QVQLVESGGGLVQAGGSLRLSCAASGRTIYRYDMGWYRQSPGKERKFVAPISWSGGRTYYADSVKGRFTIARDNAKNTVYLQMNSLKPEDTAVYYCAAEYPWSVGYWRYGLDDYWGQGTQVSVSS | high polyreactivity
QVHLVESGGGLVQAGGSLRLSCAASGRTFQWYAMGWYRQAPGKERELVAAIRYSAGSTYYADSVKGRFTISRDNAKNTVYLQMNSLKPEDTAVYYCAAEPYPYGPYYFLWLRYDYWGQGTHVTVSS | low polyreactivity
QVQLVESGGGLVQAGGSLRLSCAASGIIFSAYAMGWYRQAPGKERELVAAISSGGSTNYADSVKGRFTISRDNAKNTVYLQMNSLKPEDTAVYYCNAGERDVPNSYVAYREDYWGQGTQVTVSS | low polyreactivity
QVQLQEGGGLVQAGGSLRLSCAASGYISSPPAMGWYRQAPGKERAFVATIADGTSTYYADSVKGRFTISRDNAKNTVYLQMNSLKTEDTEVYYCAAAYNTEFYLSYWGQGTQVTVIS | high polyreactivity
QVQLVESGGGLVQSGGSLRLSCAASGIKFYYNARGWYRPAPGKERELVARITWRAGSTYYADSVKGRFTISRDNAKNTVYLQMNSLKPEDTAVYYCNADHDGLGYYFWGQGTQVTVSS | high polyreactivity
QVQLVESGGGLVQAGGSLRLICAASGIIFPVYDMGWYRQAPGKERELVASITDSGGSTSYADSVKGRFTISRDNAKNTVYLQLNSLKPEDTAVYYCAVTDSDTNYYGYLSYDYWGQGTQVNVSS | low polyreactivity
QVQLVESGGGLVQAGGSLRLSCAASGFTFSFYAIGLYRQATVKEREVVAAISWSGGSTYYADSVKGRFTISRDNAKNTVYLQMNSLKPEDTAVYFCAAKLLYGGRNGYWGQGTQVTVSS | high polyreactivity
QVQLVESGGGLVQAGGSQRLSCAASGSIFDLKAMGSYRQAPGKERELVAAISSGGGTYYADSVKGRFTISRDNAKNTVYLQMNSLKPEDTAVYYCNRVTRWTYNYWGQGTQVTVSS | high polyreactivity
QVQLVESAAGLVQAGGSLRLSCADSGSTIYRYAMGWYRQAPGKERELVAAISTTGGSTFYADSVKGRFTISRDNAKNTVYLQMNSLKPEDTAVYYCNAYYRGTYDYWGQGTQVTVSS | high polyreactivity
QVQLVESGGGLVQAGGSLSLMCAASGRTLRSYAMGWYRQAPGKEMEFVASISRSGGSTYYADSVKGRFTISRDNAKNTVYLQMNSLKPEDTAVYYCAAGVRYPYRYYYWGQGTQVTVSS | high polyreactivity

Sequence | polyreactivity (PSR sort gate)
QVQLLESGGGLVQAGGSLRLSCAASGRTFRINARGWYRQAPGKEREFVAAINYRGGSTYADSVKGRFTISRDNAKNTVYVQMNSLKPEDPAVYYCAAYATLWYYTGVHRGGFENWGQGSQVTVSS | high polyreactivity
QVQLVESGGGLVQAGGSLRLSCAASGRTFGPYTMGWYRQAPGKEREFVAAINSSGSRTYYADSVKGRFTISRDNAKNTVYLQMNSLKPEDTAVYYCAAEAKWYYSWSYPYEGDYWGQGSQVTVSS | low polyreactivity
QVQLVESGGGLVQAGGSLRLSCAASGFTFGDYAMYWVRQAPGKGLEWVSSIDSRGGSTYYADSVKGRFTISRDNAKNTVYLQMNSLKPEDTAVYYCAKPGNHRYDYWGQGTQVTVSS | high polyreactivity
QVQLVESGGGLVQAGGSLRLSCAASGSTYGIYAMGWYRQAPGKERELVAAITLRTDSTYYADSVKGRFTISRDNAKNTVYLQMNSLKPEVTAVYYCARRYRYGYDYWGQGTQVTVSS | low polyreactivity
QVQRVESGGGLVLAGGSLRLSSAASGITFVRYAMGGYRQAPVKERELVAVISRGGITNYADSVMGRFTISRDNAKNTVYLQMNSLKPEDTAVYYCAVRARSYVRTYDYWGQGTQVTVSS | high polyreactivity
QVQLVDSGGGIVQAGGSLRLSCAASGFIIAHYAMGWYRHAPGKERELVAAISWNGGRTYYADSVKGRFTISRDNAKNSVFFQRISLKPEDTAVYYCAADNRGTTVYYRNYYWGQGTQVTVSS | high polyreactivity
QVQLVESGGGLVQAGGSLRLSCAASGSIFTFYAMGWYRQAPGKERELVAAISSGGRTYYADSVKGRFTISRDNAKNTVYLQMNSLKPEDTAVYYCAASYQQYFYRYALPADYYYWGQGTQVTVSS | high polyreactivity
QVQLVESGGGLVQAGGSLRLSCPASGSIFDPYAMGWYRQAPGKERELVAAITASGSSTYYADSVKGRFTISRDNAKNTVYLQMNSLKPEDTAVYYCAADRAKWEYLLSWLGYDYWGQGTQVTVSS | low polyreactivity
QVQLVESGGGLVQAGGSLRLSCAASGSTFSTYVMGWYRQAPGKERELVATISYSSDSTYYADSVKVRFTISRDNAKNTVYLQMNSLKPEDSAVYYCNAARFTRRDYWGQGTQVTVSS | high polyreactivity
QVQLVESGGGLVQAGGSLRLSCAASGSIFEINAMGWYRQAPGKERELVAAITQSGGITYYADSVKGRFTISRDNAKNTVYLQINSLKPEDTAVYYCNTPLLKRTTRGRERNYWGQGTQVTVSS | low polyreactivity
QVQLVESGGGLDQAGGSLRLSCAASGSIFWYNTMGWYRQAPGKERELVAAITFSGGSTYYADSVKGRFTISRDNAKNTVYLQMNSLKPEDTAVYYCAAVFYSAVGYFYWGQGTQVTVSS | low polyreactivity
QVQLVESGGGLVQAGGSLRLSCAASGRIFPSYAMGWYRQAPGKERELVAAITSSDSTYYADSVKGRFTISRDNAKNTVYLQMNSLKPEDTAVYYCAAAYSYSGWWWFGYWGQGTQVTVSS | high polyreactivity
QFQLVESGRGLVQAGGGLRLSCAASGLTFGYYTMGWYRQAPGKERELVAAINYSGGSTYYADSVKGRFTISRDNAKNTVYLQMNCLKPEDSAVYYCAAEGPVYTTYEYWGQGNQVTVSS | low polyreactivity
QVQLVQSGGGLVQAGGSLRLSCADSGFIFFTNAMGRYRQAPGQDREFVAAISDSSGSTYYADSVKGRFTISRDNAKNTVYLQMNSLKPEDTAVYYCAAEYPQVTIIGYYYYWGQGTQVTVSS | low polyreactivity
QVQLVESGGGLVQAGGSLRLSCAASGRTFGGNGMGWYRQAPGKERELVASISFSGGAGTYYADSVKGRFTISRDIAKNTVYLQMNSLKPEDTAVYYCAKRYVTPTYRRYYWGQGTQVTVSS | high polyreactivity
QVQLVESVGGLVQAGGSLRLSCAASVRTFYNYSMGWYRQAPGKERELVAGISRRGGSTYYADSVKGRFTISRDNAKNTVYLQMNSLKPEDTAVYYCIEDLVRPGYYRYDYRGQGTQVTVSS | high polyreactivity
QVQLVESGGGLVQAGGSLRLSCAASGLIFVWYAMGWYRQAPGKERELVAAISWSGGSTYYADSVKGRFTISRDNAKTTVYLQMNSLKPEDTAVYYCATDPFGYSYLLVDYNYWGQGTQVTVSS | low polyreactivity
QVQLVESGGGLVQAGGSLRLSCAASGSTFSYYAMGWYRQAPGKERELVAAISSRGGSTYYADSVKGRFTISRDNAKNTVYLQMNSLKPEDTAVYYCNADHQFRSSVSGDHDYWGQGTQVTVSS | high polyreactivity
QVLQVESGGGVVQAGGSLRLSCSASGSTIGNKTMGWYRQAPGKEREFVAAITESGGGTYADSVKGRFTISRDNAKNTVYLQMNSLKPEDNAVYYSAAVWYIWPFAFYYWGEGTQVTVSS | high polyreactivity
QVQLVESGGGLVQAGGSLRLSCAASGRTFKSYSMGWYRPAPGKERELVAAISWSGGSTYYADSVKGRFTISRDNAKNTVYLQMNSLKPEDTAVYYCAKRGYASGSKWDYGYWGQGTQVTVSS | high polyreactivity
QVQLVESGGGLVQAGGSLRLSCAASGIIFPGYAMGWYRQAPGKERELVAAISSGGDTYYADSVKGRFTISRDNAKNTVYLQMNSLKPEDTAVYYCAAEYGLYAPGYYYWGQGTQVTVSS | low polyreactivity
